Nucleotides inserted into the recording tag per encoding cycle (nt per encoding cycle) data for one molecule are collected here from US20240053350A1.

The experiment has as its target immobilized peptides having F NTAA residue (F-P2 peptides of the 484-peptide P1-P2 array). Briefly: cell-based or functional assay.

B1: TdT-F4R10 conjugate (designed binder)
chain: GSSHHHHHHGGSSDSPVDLKPKPKVKPKLERPKLYKVMLLNDNSTPGEFVTVVLKAVFRMSEDTGRRVMMTAHRFGSAVVVVSERDIAETKAKEATDLGKEAGFPLMFTTEPEEGAPSGAPSGAPSGAPSGAPSGAPSSPSPVPGSQNVPAPAVKKISQYACQRRTTLNNYNQLFTDALDILAENDELRENEGSCLAFMRASSVLKSLPFPITSMKDTEGIPCLGDKVKSIIEGIIEDGESSEAKAVLNDERYKSFKLFTSVFGVGLKTAEKWFRMGFRTLSKIQSDKSLRFTQMQKAGFLYYEDLVSCVNRPEAEAVSMLVKEAVVTFLPDALVTMTGGFRRGKMTGHDVDFLITSPEATEDEEQQLLHKVTDFWKQQGLLLYCDILESTFEKFKQPSRKVDALDHFQKCFLILKLDHGRVHSEKSGQQEGKGWKAIRVDLVMCPYDRRAFALLGWTGSRQFERDLRRYATHERKMMLDNHALYDRTKRVFLEAESEEEIFAHLGLDYIEPWERNA
B1 returned a nucleotides inserted into the recording tag per encoding cycle (nt per encoding cycle) of 5 to 8.
